Experimental data reported in patent US20190270826A1 (Janssen / Centocor, published 2019).
Numbering of substitutions follows the chain as printed.

What was measured:
[1] = target: T1, cyno IL1RAP ECD displayed on HEK-293F cells (pDisplay) (cynomolgus monkey, UniProt P59822 21-367 (rhesus entry)); test: MSD cell binding, HEK-293F Cyno (clone CB8) cells displaying cyno IL1RAP ECD
T1 sequence: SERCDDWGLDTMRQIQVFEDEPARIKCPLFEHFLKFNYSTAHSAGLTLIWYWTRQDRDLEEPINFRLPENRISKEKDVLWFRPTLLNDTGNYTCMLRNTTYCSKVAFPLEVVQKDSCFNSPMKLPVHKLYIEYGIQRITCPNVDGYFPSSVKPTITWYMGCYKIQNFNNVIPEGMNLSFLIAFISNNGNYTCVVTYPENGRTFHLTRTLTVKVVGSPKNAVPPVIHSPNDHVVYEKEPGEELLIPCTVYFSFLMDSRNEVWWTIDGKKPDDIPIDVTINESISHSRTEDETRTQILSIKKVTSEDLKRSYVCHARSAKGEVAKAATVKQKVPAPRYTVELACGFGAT
Protocol: (§1) Cells were immobilized and IL1RAP antibody samples were assayed in triplicate. Briefly, expression supernatants of purified IL1RAP antibodies were normalized to 10 μg/mL. 5000 cells per well were plated into a 384 well plate (MA6000, cat. L21XB, MSD) and allowed to adhere for 2 hr. Cells were then blocked with 20% FBS in PBS (Gibco) for 15 mins. Antibody supernatants were then added and left at RT for 1 hr. Cells were washed 3 times with PBS and a ruthenium labeled secondary antibody (Mesoscale Discovery) was then added at 2 μg/mL and incubated for 1 hour at room temperature. A further washing step was then applied and 35 μL per well of 2×MSD Read buffer T (surfactant free) was then added and incubated for 5-30 minutes for detection. Plates were then read using Sector Imager 2400 (MSD). Data was normalized to controls and graphed using GraphPad Prism Version 5. A positive binder was determined to be a hit with a signal 3× greater than parental cell line background.
(§2) The MSD cell binding assay described in Example 4 was used to assess IL1RAP binding.

[2] = target: T2, human IL1RAP ECD displayed on HEK-293F cells (pDisplay) (human, UniProt Q9NPH3 21-367); test: MSD cell binding, HEK-293F Human (clone HE2) cells displaying human IL1RAP ECD
T2 construct: also called Human clone HE2 IL1RAP FL-ECD cell line
T2 sequence: T1 sequence with F183L, P273T, T326K
Protocol: as §1, §2

human FcγRIIb = target: T3, human FcγRIIb (human, UniProt P31994 43-217, limits assumed); test: AlphaScreen competition, human FcγRIIb (n=1); displaced: biotinylated control mAb B21M hIgG1 WT; pH 7.2
T3 construct: GST-tagged
T3 sequence (looked up): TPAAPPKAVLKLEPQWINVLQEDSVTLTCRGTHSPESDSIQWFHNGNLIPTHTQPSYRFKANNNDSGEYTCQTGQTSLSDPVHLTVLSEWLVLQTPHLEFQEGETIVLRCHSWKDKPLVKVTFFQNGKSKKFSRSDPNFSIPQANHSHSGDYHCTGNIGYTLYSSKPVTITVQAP
Description: (§3) Measurements were made using an AlphaScreen™ assay (Amplified Luminescent Proximity Homogeneous Assay (ALPHA), PerkinElmer, Wellesley, Mass.), a bead-based luminescent proximity assay. Laser excitation of a donor bead excites oxygen, which if sufficiently close to the acceptor bead generates a cascade of chemiluminescent events, ultimately leading to fluorescence emission at 520-620 nm.

human FcRn = target: T4, human FcRn (human, UniProt P55899 24-297; P61769 21-119, limits assumed); test: AlphaScreen competition, human FcRn (n=1); displaced: biotinylated control mAb B21M WT IgG1 (m27); pH 6.0
T4 construct: GST-tagged
Description: as §3

[3] = target: T5, human IL1RAP on cells (endogenous) (human, UniProt Q9NPH3 21-570); test: cell-based or functional assay
T5 sequence (looked up): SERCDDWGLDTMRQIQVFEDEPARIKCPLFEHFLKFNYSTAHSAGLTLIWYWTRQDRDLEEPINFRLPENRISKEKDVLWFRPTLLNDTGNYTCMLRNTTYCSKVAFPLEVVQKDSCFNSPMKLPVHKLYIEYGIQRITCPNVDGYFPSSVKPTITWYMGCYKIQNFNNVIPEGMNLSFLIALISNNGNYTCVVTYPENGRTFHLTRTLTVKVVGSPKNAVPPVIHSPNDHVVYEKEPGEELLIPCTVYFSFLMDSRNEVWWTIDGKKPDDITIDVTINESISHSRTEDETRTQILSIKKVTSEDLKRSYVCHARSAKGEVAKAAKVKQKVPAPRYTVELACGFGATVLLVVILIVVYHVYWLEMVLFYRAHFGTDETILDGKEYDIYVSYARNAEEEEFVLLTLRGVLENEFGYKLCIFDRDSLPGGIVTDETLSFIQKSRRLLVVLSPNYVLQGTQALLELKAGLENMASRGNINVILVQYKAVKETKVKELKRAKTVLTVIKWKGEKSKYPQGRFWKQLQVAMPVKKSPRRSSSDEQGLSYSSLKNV

B1: IC3B19 (bispecific antibody, human IgG4 S228P, kappa, lambda, F234A L235A)
heavy 1: EVQLVESGGGLVQPGGSLRLSCAASGFTFNTYAMNWVRQAPGKGLEWVARIRSKYNNYATYYAASVKGRFTISRDDSKNSLYLQMNSLKTEDTAVYYCARHGNFGNSYVSWFAYWGQGTLVTVSSASTKGPSVFPLAPCSRSTSESTAALGCLVKDYFPEPVTVSWNSGALTSGVHTFPAVLQSSGLYSLSSVVTVPSSSLGTKTYTCNVDHKPSNTKVDKRVESKYGPPCPPCPAPEAAGGPSVFLFPPKPKDTLMISRTPEVTCVVVDVSQEDPEVQFNWYVDGVEVHNAKTKPREEQFNSTYRVVSVLTVLHQDWLNGKEYKCKVSNKGLPSSIEKTISKAKGQPREPQVYTLPPSQEEMTKNQVSLTCLVKGFYPSDIAVEWESNGQPENNYKTTPPVLDSDGSFLLYSKLTVDKSRWQEGNVFSCSVMHEALHNHYTQKSLSLSLGK
light 1: QTVVTQEPSLTVSPGGTVTLTCRSSTGAVTTSNYANWVQQKPGQAPRGLIGGTNKRAPGTPARFSGSLLGGKAALTLSGVQPEDEAEYYCALWYSNLWVFGGGTKLTVLGQPKAAPSVTLFPPSSEELQANKATLVCLISDFYPGAVTVAWKADSSPVKAGVETTTPSKQSNNKYAASSYLSLTPEQWKSHRSYSCQVTHEGSTVEKTVAPTECS
heavy 2: not shown
light 2: DIQLTQSPSFLSASVGDRVTITCRASQGISSYLAWYQQKPGKAPKLLIYAASTLQSGVPSRFSGSGSGTEFTLTISSLQPEDFATYYCQQVNSYPLTFGGGTKVEIKRTVAAPSVFIFPPSDEQLKSGTASVVCLLNNFYPREAKVQWKVDNALQSGNSQESVTEQDSKDSTYSLSSTLTLSKADYEKHKVYACEVTHQGLSSPVTKSFNRGEC
notes: IgG4-PAA, Fab arm exchange; also called IAPB57 x CD3B219; IL1RAP x CD3
EC50 (read off the curve) [1]: ~1 µg/mL
EC50 (read off the curve) [2]: ~1 µg/mL
binding result (human FcγRIIb): binds
IC50 (read off the curve) (human FcRn): ~200 nM
Average EC50, SKNO-1 cytotoxicity in whole blood, 24 hour [3]: 1.82 nM
Average EC50, SKNO-1 cytotoxicity in whole blood, 48 hour [3]: 1.4 nM
EC50, SKNO-1 cytotoxicity in whole blood, donor 00201, 24 hour [3]: 3.58 nM
EC50, SKNO-1 cytotoxicity in whole blood, donor 00201, 48 hour [3]: 0.703 nM
EC50, SKNO-1 cytotoxicity in whole blood, donor 00263, 24 hour [3]: 1.5 nM
EC50, SKNO-1 cytotoxicity in whole blood, donor 00263, 48 hour [3]: 0.768 nM
EC50, SKNO-1 cytotoxicity in whole blood, donor 27050, 24 hour [3]: 1.38 nM
EC50, SKNO-1 cytotoxicity in whole blood, donor 27050, 48 hour [3]: 3.36 nM
EC50, SKNO-1 cytotoxicity in whole blood, donor 27060, 24 hour [3]: 1.88 nM
EC50, SKNO-1 cytotoxicity in whole blood, donor 27060, 48 hour [3]: 1.3 nM
EC50, SKNO-1 cytotoxicity in whole blood, donor 27067, 24 hour [3]: 0.912 nM
EC50, SKNO-1 cytotoxicity in whole blood, donor 27067, 48 hour [3]: 0.647 nM
EC50, SKNO-1 cytotoxicity in whole blood, donor 32771, 24 hour [3]: 1.68 nM
EC50, SKNO-1 cytotoxicity in whole blood, donor 32782, 48 hour [3]: 1.62 nM
